From the supplement of paper PMC9112550, “Optimization of the antimicrobial peptide Bac7 by deep mutational scanning” (BMC Biology, 2022) come the findings set out here.

For the series, the system named is Escherichia coli TOP10. The series can be described thus: shrunken log2 fold change of peptide-encoding DNA abundance (4.5 h post-induction vs induction); higher = less antimicrobial activity (less host growth inhibition). The conditions noted are these: time post-induction: 4.5 h; library: site-saturation at positions 5, 18, 19, 20.
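Note: peptides expressed intracellularly from a pBAD plasmid library in pooled LB shake-flask culture, induced with 0.3% L-arabinose, DNA abundance read by NGS, three biological replicates, DESeq2 with apeglm shrinkage.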

As to RRIRHRPPRLPRPRPRPKTQPRP, the “shrunken log2 fold change” value is -0.15.

As for RRIRVRPPRLPRPRPRPSFNPRP, the “shrunken log2 fold change” value is -0.411.

As for RRIRFRPPRLPRPRPRPITDPRP, the “shrunken log2 fold change” value was 0.0437.

On to RRIRMRPPRLPRPRPRPTPSPRP, for which the “shrunken log2 fold change” value is 1.18.

As to RRIRIRPPRLPRPRPRPGLIPRP, the “shrunken log2 fold change” value was -0.627.

Turning to RRIRMRPPRLPRPRPRPAHGPRP, the “shrunken log2 fold change” value was found to be 0.226.

On to RRIRVRPPRLPRPRPRPVDAPRP, for which the “shrunken log2 fold change” value was 0.485.

Turning to RRIRRRPPRLPRPRPRPDCVPRP, the “shrunken log2 fold change” value was -0.0143.

For the sequence RRIRFRPPRLPRPRPRPAPSPRP, the “shrunken log2 fold change” value turned out to be 0.607.

In the case of RRIRKRPPRLPRPRPRPGKFPRP, the “shrunken log2 fold change” value is -0.174.

For the sequence RRIRKRPPRLPRPRPRPEVLPRP, the “shrunken log2 fold change” value came to 1.57.

Turning to RRIRERPPRLPRPRPRPCKFPRP, the “shrunken log2 fold change” value is -0.214.

Consider RRIRYRPPRLPRPRPRPHQPPRP, for which the “shrunken log2 fold change” value is -0.748.

Turning to RRIRYRPPRLPRPRPRPLNMPRP, the “shrunken log2 fold change” value was -1.33.

RRIRNRPPRLPRPRPRPNDLPRP: the “shrunken log2 fold change” value was -0.0167.

RRIRVRPPRLPRPRPRPNPHPRP: the “shrunken log2 fold change” value is -0.185.

Regarding RRIRGRPPRLPRPRPRPLLPPRP, the “shrunken log2 fold change” value was found to be 0.895.

For the sequence RRIRARPPRLPRPRPRPCHYPRP, the “shrunken log2 fold change” value is -0.00197.

Consider RRIRKRPPRLPRPRPRPYKHPRP, for which the “shrunken log2 fold change” value was -0.347.

Take RRIRSRPPRLPRPRPRPVTGPRP: the “shrunken log2 fold change” value was 0.255.

RRIRERPPRLPRPRPRPPIEPRP: the “shrunken log2 fold change” value is -0.227.

With RRIRQRPPRLPRPRPRPYMAPRP, the “shrunken log2 fold change” value is -0.274.

Regarding RRIRYRPPRLPRPRPRPQLLPRP, the “shrunken log2 fold change” value is -0.42.

Take RRIRQRPPRLPRPRPRPANSPRP: the “shrunken log2 fold change” value is -0.0568.

Regarding RRIRCRPPRLPRPRPRPTKSPRP, the “shrunken log2 fold change” value is -0.0425.

As to RRIRGRPPRLPRPRPRPELWPRP, the “shrunken log2 fold change” value turned out to be 2.06.

RRIRWRPPRLPRPRPRPTNQPRP: the “shrunken log2 fold change” value came out at 0.018.

For the sequence RRIRIRPPRLPRPRPRPITIPRP, the “shrunken log2 fold change” value was -0.436.

Consider RRIRMRPPRLPRPRPRPNNTPRP, for which the “shrunken log2 fold change” value is -0.292.

Turning to RRIRDRPPRLPRPRPRPEGHPRP, the “shrunken log2 fold change” value is -0.0429.

As for RRIRVRPPRLPRPRPRPNRVPRP, the “shrunken log2 fold change” value turned out to be 0.0523.

Take RRIRYRPPRLPRPRPRPQYGPRP: the “shrunken log2 fold change” value is -0.161.

Consider RRIRLRPPRLPRPRPRPRYWPRP, for which the “shrunken log2 fold change” value was -0.0087.

Regarding RRIRARPPRLPRPRPRPSELPRP, the “shrunken log2 fold change” value is 0.22.

Take RRIRWRPPRLPRPRPRPCSCPRP: the “shrunken log2 fold change” value was found to be 0.0968.

On to RRIRIRPPRLPRPRPRPAQQPRP, for which the “shrunken log2 fold change” value is -0.0315.

Take RRIRPRPPRLPRPRPRPPRGPRP: the “shrunken log2 fold change” value was determined as 0.811.

Take RRIRNRPPRLPRPRPRPVVTPRP: the “shrunken log2 fold change” value is -0.114.

RRIRNRPPRLPRPRPRPPVEPRP: the “shrunken log2 fold change” value is 0.272.

As for RRIRKRPPRLPRPRPRPDYEPRP, the “shrunken log2 fold change” value is -0.164.

RRIRTRPPRLPRPRPRPCCLPRP: the “shrunken log2 fold change” value worked out at 0.096.

In the case of RRIRKRPPRLPRPRPRPCPEPRP, the “shrunken log2 fold change” value amounted to 0.196.

Regarding RRIRDRPPRLPRPRPRPSTTPRP, the “shrunken log2 fold change” value was 0.0945.

With RRIRPRPPRLPRPRPRPPHVPRP, the “shrunken log2 fold change” value came to 0.782.

For RRIRSRPPRLPRPRPRPNVTPRP, the “shrunken log2 fold change” value is -0.0212.

Take RRIRERPPRLPRPRPRPDCSPRP: the “shrunken log2 fold change” value is -0.148.

Regarding RRIRGRPPRLPRPRPRPWWSPRP, the “shrunken log2 fold change” value came to 0.00664.

As for RRIRTRPPRLPRPRPRPNKNPRP, the “shrunken log2 fold change” value was -0.156.

Regarding RRIRARPPRLPRPRPRPRELPRP, the “shrunken log2 fold change” value was found to be 0.496.

For RRIRARPPRLPRPRPRPEDVPRP, the “shrunken log2 fold change” value amounted to 0.931.

For RRIRFRPPRLPRPRPRPEMIPRP, the “shrunken log2 fold change” value was 0.169.

Regarding RRIRRRPPRLPRPRPRPSWLPRP, the “shrunken log2 fold change” value came to 0.202.

Turning to RRIRKRPPRLPRPRPRPDIPPRP, the “shrunken log2 fold change” value was -0.109.

As to RRIRSRPPRLPRPRPRPFKEPRP, the “shrunken log2 fold change” value was -0.117.

In the case of RRIRQRPPRLPRPRPRPLFVPRP, the “shrunken log2 fold change” value was -0.495.

Take RRIRVRPPRLPRPRPRPNSNPRP: the “shrunken log2 fold change” value is -0.74.

On to RRIRKRPPRLPRPRPRPDYTPRP, for which the “shrunken log2 fold change” value was -0.193.

In the case of RRIRLRPPRLPRPRPRPDHCPRP, the “shrunken log2 fold change” value is -0.0562.

RRIRMRPPRLPRPRPRPVFSPRP: the “shrunken log2 fold change” value was 0.314.

As for RRIRSRPPRLPRPRPRPVMTPRP, the “shrunken log2 fold change” value was -0.0963.

For the sequence RRIRERPPRLPRPRPRPTHWPRP, the “shrunken log2 fold change” value worked out at 1.02.

Turning to RRIRSRPPRLPRPRPRPNHRPRP, the “shrunken log2 fold change” value is -0.426.

For RRIRTRPPRLPRPRPRPLCDPRP, the “shrunken log2 fold change” value is -0.714.

For the sequence RRIRVRPPRLPRPRPRPTRDPRP, the “shrunken log2 fold change” value is 0.472.

For RRIRWRPPRLPRPRPRPAAAPRP, the “shrunken log2 fold change” value amounted to 1.21.

On to RRIRRRPPRLPRPRPRPYHHPRP, for which the “shrunken log2 fold change” value was -0.471.

Consider RRIRYRPPRLPRPRPRPNNYPRP, for which the “shrunken log2 fold change” value was -1.22.

Consider RRIRMRPPRLPRPRPRPPDGPRP, for which the “shrunken log2 fold change” value was found to be 1.41.

As for RRIRFRPPRLPRPRPRPRRYPRP, the “shrunken log2 fold change” value is -0.0281.

For RRIRYRPPRLPRPRPRPANSPRP, the “shrunken log2 fold change” value is -0.11.

As to RRIRWRPPRLPRPRPRPGNMPRP, the “shrunken log2 fold change” value was -0.11.

On to RRIRTRPPRLPRPRPRPCCIPRP, for which the “shrunken log2 fold change” value was -0.155.

For RRIRCRPPRLPRPRPRPMYWPRP, the “shrunken log2 fold change” value came out at 0.0082.

With RRIRTRPPRLPRPRPRPHRHPRP, the “shrunken log2 fold change” value was -0.211.

As to RRIRPRPPRLPRPRPRPDSRPRP, the “shrunken log2 fold change” value was 0.0317.

With RRIRTRPPRLPRPRPRPHNIPRP, the “shrunken log2 fold change” value is -0.455.

On to RRIRSRPPRLPRPRPRPMCLPRP, for which the “shrunken log2 fold change” value was determined as 0.038.

Regarding RRIRERPPRLPRPRPRPFNSPRP, the “shrunken log2 fold change” value was -0.225.

Turning to RRIRRRPPRLPRPRPRPCRTPRP, the “shrunken log2 fold change” value was determined as 0.173.

For RRIRFRPPRLPRPRPRPMQSPRP, the “shrunken log2 fold change” value was -0.208.

For the sequence RRIRYRPPRLPRPRPRPQSDPRP, the “shrunken log2 fold change” value was -0.251.

Take RRIRQRPPRLPRPRPRPIGTPRP: the “shrunken log2 fold change” value turned out to be 0.0722.

RRIRGRPPRLPRPRPRPSFWPRP: the “shrunken log2 fold change” value was 0.66.

On to RRIRYRPPRLPRPRPRPALMPRP, for which the “shrunken log2 fold change” value is -0.226.

Turning to RRIRIRPPRLPRPRPRPKAQPRP, the “shrunken log2 fold change” value is -0.0442.

Regarding RRIRFRPPRLPRPRPRPSHAPRP, the “shrunken log2 fold change” value was -0.149.

Take RRIRCRPPRLPRPRPRPPLEPRP: the “shrunken log2 fold change” value was 0.186.

Turning to RRIRWRPPRLPRPRPRPARRPRP, the “shrunken log2 fold change” value came to 0.495.

In the case of RRIRMRPPRLPRPRPRPIVFPRP, the “shrunken log2 fold change” value was 0.038.

Consider RRIRDRPPRLPRPRPRPNGMPRP, for which the “shrunken log2 fold change” value is -0.0609.

For the sequence RRIRWRPPRLPRPRPRPLINPRP, the “shrunken log2 fold change” value was -0.229.

Regarding RRIRRRPPRLPRPRPRPLHRPRP, the “shrunken log2 fold change” value was 0.202.

With RRIRLRPPRLPRPRPRPDGMPRP, the “shrunken log2 fold change” value was -0.153.

Regarding RRIRLRPPRLPRPRPRPPMSPRP, the “shrunken log2 fold change” value worked out at 0.0743.

Regarding RRIRWRPPRLPRPRPRPECYPRP, the “shrunken log2 fold change” value was -0.0149.

Regarding RRIRSRPPRLPRPRPRPAGQPRP, the “shrunken log2 fold change” value is -0.0166.

With RRIRMRPPRLPRPRPRPWFRPRP, the “shrunken log2 fold change” value was -0.305.

On to RRIRARPPRLPRPRPRPIFHPRP, for which the “shrunken log2 fold change” value came out at 0.183.

As to RRIRRRPPRLPRPRPRPYMKPRP, the “shrunken log2 fold change” value was -0.0984.

Regarding RRIRIRPPRLPRPRPRPCYEPRP, the “shrunken log2 fold change” value is -0.303.

For the sequence RRIRHRPPRLPRPRPRPFSWPRP, the “shrunken log2 fold change” value is -0.0533.

Consider RRIRDRPPRLPRPRPRPQGTPRP, for which the “shrunken log2 fold change” value amounted to 0.165.

Consider RRIRTRPPRLPRPRPRPWYCPRP, for which the “shrunken log2 fold change” value is -0.153.

As for RRIRSRPPRLPRPRPRPAFIPRP, the “shrunken log2 fold change” value is -0.0885.

As for RRIRARPPRLPRPRPRPSNWPRP, the “shrunken log2 fold change” value was found to be 0.253.

For the sequence RRIRHRPPRLPRPRPRPTRSPRP, the “shrunken log2 fold change” value is -0.0409.

Consider RRIRVRPPRLPRPRPRPEGYPRP, for which the “shrunken log2 fold change” value was -0.0123.

As for RRIRPRPPRLPRPRPRPYNTPRP, the “shrunken log2 fold change” value is -0.928.

As to RRIRNRPPRLPRPRPRPLKIPRP, the “shrunken log2 fold change” value was -0.233.

RRIRPRPPRLPRPRPRPRFAPRP: the “shrunken log2 fold change” value is 0.323.

For RRIRSRPPRLPRPRPRPPPWPRP, the “shrunken log2 fold change” value came to 0.651.

Take RRIRARPPRLPRPRPRPGQDPRP: the “shrunken log2 fold change” value was 0.15.

Take RRIRTRPPRLPRPRPRPEDEPRP: the “shrunken log2 fold change” value was determined as 0.0995.

Consider RRIRWRPPRLPRPRPRPNRIPRP, for which the “shrunken log2 fold change” value was -0.115.

With RRIRHRPPRLPRPRPRPGLIPRP, the “shrunken log2 fold change” value was -0.234.

For the sequence RRIRIRPPRLPRPRPRPQDVPRP, the “shrunken log2 fold change” value was -0.0964.

For RRIRRRPPRLPRPRPRPVVEPRP, the “shrunken log2 fold change” value stood at 0.339.

For the sequence RRIRKRPPRLPRPRPRPFRNPRP, the “shrunken log2 fold change” value was -0.309.

Take RRIRLRPPRLPRPRPRPTLIPRP: the “shrunken log2 fold change” value was -0.407.

As to RRIRMRPPRLPRPRPRPPGEPRP, the “shrunken log2 fold change” value amounted to 1.47.

Consider RRIRYRPPRLPRPRPRPYMMPRP, for which the “shrunken log2 fold change” value is -0.337.

With RRIRARPPRLPRPRPRPYPEPRP, the “shrunken log2 fold change” value was -0.181.

Consider RRIRHRPPRLPRPRPRPWRSPRP, for which the “shrunken log2 fold change” value is -0.0818.

Consider RRIRPRPPRLPRPRPRPTHRPRP, for which the “shrunken log2 fold change” value was 0.223.

Consider RRIRRRPPRLPRPRPRPMTCPRP, for which the “shrunken log2 fold change” value is 0.129.
